Results on five variants are retold here after IntAct's records for PubMed 15210731.

B1: Myosin light chain 1 (Saccharomyces cerevisiae), P53141 (parent)
chain: MSATRANKDIFTLFDKKGQGAIAKDSLGDYLRAIGYNPTNQLVQDIINADSSLRDASSLTLDQITGLIEVNEKELDATTKAKTEDFVKAFQVFDKESTGKVSVGDLRYMLTGLGEKLTDAEVDELLKGVEVDSNGEIDYKKFIEDVLRQ
partner: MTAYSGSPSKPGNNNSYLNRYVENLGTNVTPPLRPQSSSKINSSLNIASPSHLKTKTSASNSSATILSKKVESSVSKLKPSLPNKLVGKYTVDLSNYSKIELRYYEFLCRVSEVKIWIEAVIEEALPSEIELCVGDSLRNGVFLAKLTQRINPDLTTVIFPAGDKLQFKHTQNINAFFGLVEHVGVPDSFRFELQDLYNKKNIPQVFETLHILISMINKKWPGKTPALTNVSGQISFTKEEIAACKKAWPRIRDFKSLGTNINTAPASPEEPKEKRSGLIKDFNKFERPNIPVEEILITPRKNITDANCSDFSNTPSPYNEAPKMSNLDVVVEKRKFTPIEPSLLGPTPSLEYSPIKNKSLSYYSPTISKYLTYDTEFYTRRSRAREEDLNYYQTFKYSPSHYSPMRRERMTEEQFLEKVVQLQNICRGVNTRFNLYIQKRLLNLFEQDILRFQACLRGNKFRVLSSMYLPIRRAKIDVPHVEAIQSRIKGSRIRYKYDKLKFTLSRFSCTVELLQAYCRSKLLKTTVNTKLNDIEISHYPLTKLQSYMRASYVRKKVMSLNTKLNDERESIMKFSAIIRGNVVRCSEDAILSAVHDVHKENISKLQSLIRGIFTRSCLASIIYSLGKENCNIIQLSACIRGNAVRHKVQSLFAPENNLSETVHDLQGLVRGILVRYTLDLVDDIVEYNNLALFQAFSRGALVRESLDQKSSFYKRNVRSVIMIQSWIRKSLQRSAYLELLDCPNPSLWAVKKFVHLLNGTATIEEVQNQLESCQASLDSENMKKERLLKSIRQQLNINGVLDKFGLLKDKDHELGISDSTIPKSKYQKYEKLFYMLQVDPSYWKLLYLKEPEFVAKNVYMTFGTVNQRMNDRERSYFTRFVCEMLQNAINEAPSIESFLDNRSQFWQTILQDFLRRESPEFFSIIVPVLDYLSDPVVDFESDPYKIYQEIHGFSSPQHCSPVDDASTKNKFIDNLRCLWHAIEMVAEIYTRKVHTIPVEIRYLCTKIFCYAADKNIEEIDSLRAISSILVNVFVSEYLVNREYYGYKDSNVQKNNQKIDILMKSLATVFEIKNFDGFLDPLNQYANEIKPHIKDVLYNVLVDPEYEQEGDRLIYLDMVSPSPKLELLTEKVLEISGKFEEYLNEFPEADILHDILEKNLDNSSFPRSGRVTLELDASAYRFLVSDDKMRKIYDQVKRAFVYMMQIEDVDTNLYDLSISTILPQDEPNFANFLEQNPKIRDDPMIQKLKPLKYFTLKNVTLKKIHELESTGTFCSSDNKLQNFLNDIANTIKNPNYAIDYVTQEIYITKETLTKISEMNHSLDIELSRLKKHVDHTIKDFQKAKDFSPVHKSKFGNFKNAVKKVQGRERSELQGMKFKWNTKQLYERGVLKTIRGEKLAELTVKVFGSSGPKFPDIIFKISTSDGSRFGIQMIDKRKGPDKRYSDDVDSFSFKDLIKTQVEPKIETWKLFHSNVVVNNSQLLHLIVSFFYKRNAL
B2: Myosin light chain 1 (Saccharomyces cerevisiae), P53141 (parent)
chain: B1 chain
B3: Myosin-1 (Saccharomyces cerevisiae), P08964 (parent)
chain: MTGGQSCSSNMIVWIPDEKEVFVKGELMSTDINKNKFTGQEEQIGIVHPLDSTEVSNLVQVRISDVFPVNPSTFDKVENMSELTHLNEPSVLYNLEKRYDCDLIYTYSGLFLVAINPYHNLNLYSEDHINLYHNKHNRLSKSRLDENSHEKLPPHIFAIAEEAYENLLSEGKDQSILVTGESGAGKTENTKKILQYLASITSGSPSNIAPVSGSSIVESFEMKILQSNPILESFGNAQTVRNNNSSRFGKFIKIEFNEHGMINGAHIEWYLLEKSRIVHQNSKERNYHIFYQLLSGLDDSELKNLRLKSRNVKDYKILSNSNQDIIPGINDVENFKELLSALNIIGFSKDQIRWIFQVVAIILLIGNIEFVSDRAEQASFKNDVSAICSNLGVDEKDFQTAILRPRSKAGKEWVSQSKNSQQAKFILNALSRNLYERLFGYIVDMINKNLDHGSATLNYIGLLDIAGFEIFENNSFEQLCINYTNEKLQQFFNNHMFVLEQSEYLKENIQWDYIDYGKDLQLTIDLIESKGPPTGVLPLLDEEAVLPKSTDESFYSKLISTWDQNSSKFKRSRLKNGFILKHYAGDVEYTVEGWLSKNKDPLNDNLLSLLSSSQNDIISKLFQPEGEKSSSAGVEANISNQEVKKSARTSTFKTTSSRHREQQITLLNQLASTHPHFVRCIIPNNVKKVKTFNRRLILDQLRCNGVLEGIRLAREGYPNRIAFQEFFQRYRILYPENSTTTTFSSKLKASTKQNCEFLLTSLQLDTKVYKIGNTKLFFKAGVLADLEKQKDVKLNNIMIKLTATIRGYTVRKEITYHLQKLKKTRVIGNTFRLYNRLVKEDPWFNLFIRIKPLLTSSNDMTRTKKFNEQINKLKNDLQEMESKKKFLEEKNQKTVNELENTQDLLNQEKENLRKNESLLNRVKTSSETLQKQFDDLVSEKDEISREKLEVAQNLEEAHQKIQGLQETIREREATLEKLHSKNNELIKQISDLNCDISKEQSSQSLIKESKLKLENEIKRLKDVINSKEEEIKSFNDKLSSSEEDLDIKLVTLEKNCNIAMSRLQSLVTENSDLRSKNENFKKEKAALNNQLKNKESELLKMKEKIDNHKKELATFSKQRDDAVSEHGKITAELKETRIQLTEYKSNYQKIKEEYSNFQRETKEQEQKKRNSLVESLNDSKIKELEARLSQEISLNQYLNKRISGNSVETNISSTRRSTSYSDDPLDKEDIIKKYYDLQLAFTEITRNLENEIEEKKNLISRLRFTETRLASSSFEDQKIKAQMKKLKKLIQDMDPSIPLDSILNEPLDNCPDKESDINKLMLEVDYLKRQLDIETRAHYDAENAISALHSKFRKIQGESSLSSSDIYKLKFEASEERVKSLEDKLKTMPLRDRTNLPVGDIIKNRDSISKYEEEIRYYKLENYKLQEILNESNGKLSQLTLDLRQSKSKEALLSEQLDRLQKDLESTERQKELLSSTIKQQKQQFENCMDDLQGNELRLREHIHALKQAEEDVKNMASIIEKLKTQNKQKEKLIWEREMERNDSDMQLQETLLELKRVQDVKKILSDDLAHLKERLSAVEDRSQYTDEINRLKEELNCSLKAETNLKKEFATLKYKLETSTNDSEAKISDLLKQLDHYTKVVEMLNNEKDAISLAEKELYQKYEALNTECESLKGKIVSLTKIKQELESDLNQKTDALQISNAALSSSTQKNKEITEKIKYLEETLQLQMEQNSRNGELVKTLQASCNGYKDKFDDEKQKNIDLYEENQTLQKLNTDLQLQLKNLHERLSDTTEKNAWLSKIHELENMVSLETDLKYEEMKKNKSLERAVEELQTKNSQQTDVIELANKNRSEFEEATLKYEAQISDLEKYISQQELEMKKSIRDNSSYRDKVQEMAQEIEFWKSRYESTMIGSKNIDSNNAQSKIFS
partner: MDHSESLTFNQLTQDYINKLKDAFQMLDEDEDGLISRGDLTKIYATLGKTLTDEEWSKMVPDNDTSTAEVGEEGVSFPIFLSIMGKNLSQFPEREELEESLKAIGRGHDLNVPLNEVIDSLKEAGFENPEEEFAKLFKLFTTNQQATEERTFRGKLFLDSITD

One experiment covers variants of B1. As to conditions: with iqg1_yeast IQG1, Q12280.
As to G114D, the “effect of a mutation on the interaction” value is “disrupting interaction strength”.
On to G135E, for which the “effect of a mutation on the interaction” value is listed as “with no effect”.

Variants of B2 are the subject of another experiment. The settings on record: with myo2_yeast MYO2, P19524.
myo2_yeast MYO2, P19524, sequence (P19524 whole entry): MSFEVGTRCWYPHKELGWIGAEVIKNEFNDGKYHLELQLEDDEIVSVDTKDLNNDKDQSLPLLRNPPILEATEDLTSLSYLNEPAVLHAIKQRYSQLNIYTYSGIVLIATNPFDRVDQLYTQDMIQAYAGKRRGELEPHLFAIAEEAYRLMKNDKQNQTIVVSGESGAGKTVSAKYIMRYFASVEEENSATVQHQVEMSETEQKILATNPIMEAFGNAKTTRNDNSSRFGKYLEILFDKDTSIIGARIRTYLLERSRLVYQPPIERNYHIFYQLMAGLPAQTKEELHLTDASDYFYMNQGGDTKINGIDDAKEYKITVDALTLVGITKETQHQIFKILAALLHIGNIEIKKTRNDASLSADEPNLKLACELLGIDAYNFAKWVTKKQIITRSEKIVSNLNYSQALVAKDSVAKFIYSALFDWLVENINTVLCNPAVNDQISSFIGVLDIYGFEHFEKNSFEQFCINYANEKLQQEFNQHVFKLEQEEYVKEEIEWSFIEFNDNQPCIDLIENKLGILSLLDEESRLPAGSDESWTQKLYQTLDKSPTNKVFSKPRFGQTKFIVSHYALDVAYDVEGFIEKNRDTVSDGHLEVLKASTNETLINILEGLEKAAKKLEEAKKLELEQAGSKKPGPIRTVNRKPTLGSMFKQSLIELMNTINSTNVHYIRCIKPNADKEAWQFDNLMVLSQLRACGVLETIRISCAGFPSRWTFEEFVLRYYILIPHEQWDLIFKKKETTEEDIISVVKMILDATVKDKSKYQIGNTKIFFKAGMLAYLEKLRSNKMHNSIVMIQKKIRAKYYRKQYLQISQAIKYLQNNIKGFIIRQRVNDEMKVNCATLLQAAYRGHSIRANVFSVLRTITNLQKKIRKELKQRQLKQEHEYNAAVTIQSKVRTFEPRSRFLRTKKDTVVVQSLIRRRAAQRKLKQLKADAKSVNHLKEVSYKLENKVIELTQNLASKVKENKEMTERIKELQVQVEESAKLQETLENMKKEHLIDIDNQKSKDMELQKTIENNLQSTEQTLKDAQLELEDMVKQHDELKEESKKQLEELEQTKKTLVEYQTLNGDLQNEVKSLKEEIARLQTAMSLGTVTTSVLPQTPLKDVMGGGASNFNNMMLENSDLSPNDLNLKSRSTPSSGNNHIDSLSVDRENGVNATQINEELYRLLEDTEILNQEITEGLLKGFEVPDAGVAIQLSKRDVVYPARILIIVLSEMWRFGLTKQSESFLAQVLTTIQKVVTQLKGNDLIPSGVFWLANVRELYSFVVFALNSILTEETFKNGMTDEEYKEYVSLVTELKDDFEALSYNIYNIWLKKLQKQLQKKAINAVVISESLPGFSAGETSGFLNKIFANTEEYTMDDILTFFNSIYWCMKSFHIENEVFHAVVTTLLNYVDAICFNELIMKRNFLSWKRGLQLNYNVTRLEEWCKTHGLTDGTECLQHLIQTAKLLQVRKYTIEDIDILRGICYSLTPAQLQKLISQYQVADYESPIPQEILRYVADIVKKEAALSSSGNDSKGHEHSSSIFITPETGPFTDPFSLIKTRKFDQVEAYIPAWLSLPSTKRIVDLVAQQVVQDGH
In the case of G135E, the “effect of a mutation on the interaction” value is “with no effect”.
Turning to G114D, the “effect of a mutation on the interaction” value is recorded as “disrupting interaction strength”.

Variants of B2 are the subject of a further experiment. As to conditions: with myo1_yeast MYO1, P08964.
In the case of G135E, the “effect of a mutation on the interaction” value was “decreasing interaction strength”.
The same measure, in the same setting: under G114D stands “decreasing interaction strength”.

The variants in a further experiment derive from B3. As to conditions: with mlc2_yeast MLC2, Q06580.
With R806A, the “effect of a mutation on the interaction” value is given as “with no effect”.
